Experimental data taken from patent US9180187B2, “Medicament for treating and/or preventing cancer” (TORAY INDUSTRIES, INC., priority 2010, dated 2015).

Key:
[1] = system: human breast cancer cell line MDA-MB-157; test: ADCC activity, chromium-51 release; format: cell-based; conditions: 1 μg antibody, mouse lymphocytes 2×10^5 cells, 10^3 target cells, 4 hours
Method: (§1) The above-selected anti-CAPRIN-1 monoclonal antibodies #1 to #11 were evaluated for their cytotoxic activities against cancer cells (ADCC activity). Hybridomas producing the monoclonal antibodies #1 to #11 were each cultured using hybridoma SFM medium (Invitrogen). The thus obtained supernatant was purified using Hitrap ProteinA Sepharose FF (GE HealthCare), replaced with PBS(−), and then filtered through 0.22 μm filter (Millipore). The obtained filtrates were used as antibodies for assay. The human breast cancer cell line MDA-MB-157 (10^6 cells) was collected in a 50-ml centrifuge tube, to which 100 μCi chromium(Cr)-51 was then added, and incubated at 37° C. for 2 hours. Subsequently, the cells were washed 3 times with RPMI1640 medium containing 10% FBS, and then dispensed into each well of a 96-well V-bottom plate at 10^3 cells per well. The thus obtained cells are used as target cell. The above purified antibodies (1 μg each) were added to the cells. Separately, mouse lymphocytes separated from the mouse spleen were further added (2×10^5 cells) and then cultured under conditions of 37° C. and 5% CO2 for 4 hours. After culture, the amount of chromium(Cr)-51 released from cytotoxically impaired tumor cells in a culture supernatant was measured, so that the ADCC activity of each anti-CAPRIN-1 antibody against cancer cells was calculated. […] On the other hand, similar procedures were performed using the monoclonal antibodies (which were prepared in Example 2) reactive with the CAPRIN-1 protein itself, but not reactive with the surface of cancer cells, no cytotoxic activity was observed (see FIG. 1). […] Similarly, the anti-CAPRIN-1 antibodies were examined for ADCC activity against other human cancer cell lines including glioma cell lines (T98G and U373), lung cancer cell lines (A549 and QG56), renal cancer cell lines (Caki-1 and ACHN), a uterine cervix cancer cell line (SW756), a bladder cancer cell line (T24), an esophageal cancer cell line (KYSE180), gastric cancer cell lines (MNK28 and MNK45), a colorectal cancer cell line (SW480), a leukemia cell line (AML5), and a lymphoma cell line (Ramos).

[2] = system: CAPRIN-1 protein; test: Flow cytometry: expression of CAPRIN-1 protein on the cell surface of MCF-7 treated with antitumor agents; format: cell-based, human; conditions: 1 μg antibody
Method: The cancer cell line MCF-7 was treated with each antitumor agent at a 50% inhibitory concentration which was calculated in (1) above, and the expression behavior of a CAPRIN-1 protein on the cell surface was examined.
The expression behavior of the CAPRIN-1 protein on the surface of the above-treated MCF-7 human breast cancer cell was examined. The cell was prepared to a concentration of 1×10^5 cells/ml, and then cultured on a 6-well plate under conditions of 37° C. and 5% CO2 for 1 day. Next, the cell was treated with antitumor agents at the 50% inhibitory concentration calculated in (1) above, or with PBS(−) as a control, and then cultured under conditions of 37° C. and 5% CO2 for 2 days. […] After washing with PBS, fluorescence intensity was measured using a FACS caliber (Becton, Dickinson and Company). […] As a result, no significant difference in fluorescence intensity was observed regardless of treatment with an antitumor agent. Specifically, the fluorescence intensity obtained in the case of adding the anti-CAPRIN-1 antibody to MCF-7 not treated with any antitumor agent indicated 32% higher enhancement when compared with that in the case of adding the control antibody. […] Here, the percentage of enhancement in fluorescence intensity was represented by the percentage of increase in mean fluorescence intensity (MFI level) in each cell and calculated by the following formula. […]

[3] = system: KYSE180; test: ADCC activity, chromium-51 release; format: cell-based, human; conditions: esophageal cancer cell line
Method: as §1

[4] = system: Ramos; test: ADCC activity, chromium-51 release; format: cell-based, human; conditions: lymphoma cell line
Method: as §1

[5] = system: ACHN; test: ADCC activity, chromium-51 release; format: cell-based, human; conditions: renal cancer cell line
Method: as §1

[6] = system: MNK45; test: ADCC activity, chromium-51 release; format: cell-based, human; conditions: gastric cancer cell line
Method: as §1

[7] = system: Caki-1; test: ADCC activity, chromium-51 release; format: cell-based, human; conditions: renal cancer cell line
Method: as §1

[8] = system: MNK28; test: ADCC activity, chromium-51 release; format: cell-based, human; conditions: gastric cancer cell line
Method: as §1

[9] = system: U373; test: ADCC activity, chromium-51 release; format: cell-based, human; conditions: glioma cell line
Method: as §1

[10] = system: SW480; test: ADCC activity, chromium-51 release; format: cell-based, human; conditions: colorectal cancer cell line
Method: as §1

[11] = system: QG56; test: ADCC activity, chromium-51 release; format: cell-based, human; conditions: lung cancer cell line
Method: as §1

[12] = system: T98G; test: ADCC activity, chromium-51 release; format: cell-based, human; conditions: glioma cell line
Method: as §1

[13] = system: A549; test: ADCC activity, chromium-51 release; format: cell-based, human; conditions: lung cancer cell line
Method: as §1

[14] = system: SW756; test: ADCC activity, chromium-51 release; format: cell-based, human; conditions: uterine cervix cancer cell line
Method: as §1

[15] = system: T24; test: ADCC activity, chromium-51 release; format: cell-based, human; conditions: bladder cancer cell line
Method: as §1

[16] = system: AML5; test: ADCC activity, chromium-51 release; format: cell-based, human; conditions: leukemia cell line
Method: as §1

B1: monoclonal antibody #9: mouse anti-CAPRIN-1 monoclonal antibody; heavy chain variable region SEQ ID NO: 103, light chain variable region SEQ ID NO: 107 (antibody, listed as Mus musculus, V domains shown)
VH: PRASLGVSETLLCTSGFTFTDYYMSWVRQPPGKALEWLGFIRNKANGYTTEYSASVKGRFTISRDNSQSILYLQMNTLRAEDSATYYCARANWAFDYWGQGTTVTVSSK
VL: SGDRVSLSCRASQSISNYLHWYQQKSHESPRLLIKYASQSISGIPSRFSGSGSGTDFTLSINSVETEDFGMYFCQQSNSWPYTFGGGTKLEIKQ
B1 was tested, and the “ADCC activity (cytotoxic activity) against MDA-MB-157” value [1] was 32.4%, the “percentage of enhancement in fluorescence intensity versus control antibody” value ([2]; MCF-7 not treated with any antitumor agent) was 32% and the “percentage of enhancement in fluorescence intensity versus control antibody” value ([2]; MCF-7 treated with the antitumor agent at 50% inhibitory concentration for 2 days) was 32%. The “ADCC activity against KYSE180” value [3] was at least 22%, the “ADCC activity against Ramos” value [4] was at least 10% and the “ADCC activity against ACHN” value [5] was at least 14%. For the same molecule, the “ADCC activity against MNK45” value [6] was at least 10%, the “ADCC activity against Caki-L” value [7] was at least 23% and the “ADCC activity against MNK28” value [8] was at least 15%. The “ADCC activity against U373” value [9] was at least 16%, the “ADCC activity against SW480” value [10] was at least 17% and the “ADCC activity against QG56” value [11] was at least 20%. The “ADCC activity against T98G” value [12] was at least 12%, the “ADCC activity against A549” value [13] was at least 24% and the “ADCC activity against SW756” value [14] was at least 16%. For the same molecule, the “ADCC activity against T24” value [15] was at least 18% and the “ADCC activity against AML5” value [16] was at least 10%.
